Substitutions are numbered along the chain they refer to.
T1: dCREB2-a (UniProt Q9VWW0)
T1 sequence: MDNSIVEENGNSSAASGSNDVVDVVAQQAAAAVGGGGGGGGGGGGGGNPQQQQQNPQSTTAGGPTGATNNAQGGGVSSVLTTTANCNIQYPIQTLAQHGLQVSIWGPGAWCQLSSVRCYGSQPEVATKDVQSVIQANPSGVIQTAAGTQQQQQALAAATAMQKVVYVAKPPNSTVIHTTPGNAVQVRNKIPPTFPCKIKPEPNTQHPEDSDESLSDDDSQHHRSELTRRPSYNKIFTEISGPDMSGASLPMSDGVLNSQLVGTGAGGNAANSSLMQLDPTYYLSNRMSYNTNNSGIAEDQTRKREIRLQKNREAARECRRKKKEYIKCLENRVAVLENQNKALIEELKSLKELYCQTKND

B1: dCREB2-b: Drosophila dCREB2 isoform lacking exons 2 and 6, antagonist of dCREB2-a, expressed from RSV-dCREB2-b (protein)
chain: MDNSIVEENGNSSAASGSNDVVDVVAQQAAAAVGGGGGGGGGGGGGNPQQQQQNPQSTTAGGPTGATNNAQGGGVSSVLTTTANCNIQYPIQTLAQHGLQVQSVIQANPSGVIQTAAGTQQQQQALAAATAMQKVVYVAKPPNSTVIHTTPGNAVQIPPTFPCKIKPEPNTQHPEDSDESLSDDDSQHHRSELTRRPSYNKIFTEISGPDMSDNSGIAEDQTRKREIRLQKNREAARECRRKKKEYIKCLENRVAVLENQNKALIEELKSLKELYCQTKND
B2: mLZ-dCREB2-b: leucine-zipper mutant of dCREB2-b; middle two leucines converted to valines (protein)
chain: B1 chain with L257V, L264V

How the values were obtained:
dCREB2-a = target: T1, dCREB2-a; assay: cell_activity; conditions: F9 cells; dCREB2-a plus PKA relative to PKA alone
[1] = test system: PKA-responsive transcription (CRE-directed reporter) in F9 cells; assay: PKA-responsive transcription from the CRE-containing D(-71) CAT reporter in transiently transfected F9 cells; type: cell-based; conditions: cotransfected with dCREB2-a, PKA and reporter
Experimental: Undifferentiated F9 cells were maintained and transfected using the calcium phosphate method as described in Darrow, A. L. et al., “Maintenance and Use of F9 Teratocarcinoma Cells”, In Meth. Enzymol., v. 190 (1990), except that chloroquine was added to […] immediately before transfection and precipitates were washed off ten hours after transfection, at which time the dishes received fresh chloroquine-free medium. Amounts of DNA in transfections were made equivalent by adding RSV-0 where required. Cells were harvested 30 hours after transfection. Extracts were made by three cycles of freeze/thawing, with brief vortexing between cycles. Particulate matter was cleared from extracts by ten minutes of centrifugation in the cold. β-galactosidase assays were performed as described in Miller, J. H., Experiments in Molecular Genetics, Cold Spring Harbor Laboratory, Cold Spring Harbor, N.Y., 1972. CAT assays were performed as described in Sheen, J. Y. and B. Seed, Gene, 67: 271-277 (1988) using aliquots of extract heat-treated at 65° C. for ten minutes and centrifuged for ten minutes to remove debris. Results reported are from three experiments run on different days with at least three dishes per condition within each experiment. Error bars represent standard error of the mean, with error propagation taken into account (Grossman, M. and H. W. Norton, J. Hered., 71: 295-297 (1980)).
F9 cells were transiently transfected with 10 μg of D(−71) CAT plasmid as a CRE-directed reporter. 5 μg of RSV-βgal reporter was included in each dish as a normalization control for transfection efficiency. Different groups received 8 μg of dCREB2-a expression vector and 4 μg of PKA expression vector, separately or in combination. Results are expressed as CAT/Pgal enzyme activity ratios, standardized to values obtained with PKA-transfected dishes. […]
Two different dCREB2 isoforms, dCREB2-a and dCREB2-b, have opposite roles in PKA-responsive transcription. […] CREB-dependent changes in gene expression were measured using a cotransfected construct that has a CRE-containing promoter fused to a reporter gene.

Row | Molecule | activity (dCREB2-a) [fold] | effect on PKA-dependent activation by dCREB2-a [1]
1 | D(-71) CAT rat somatostatin promoter CRE fragment | 5.4 | 
2 | B1 |  | nearly complete block
3 | B2 |  | failed to block

Reference: patent US7572434B2, “Method for assessing the effect of a drug on long term memory formation” (Cold Spring Harbor Laboratory, priority 1994, dated 2009)
